Target: monomeric SARS-CoV-2 receptor binding domain (RBD) (SARS-CoV-2) (UniProt P0DTC2)

DH1047 antigen binding fragment (Fab) was tested, and the Kd was under 0.02 nM.
